One block for each molecule: values may come before it. Square brackets hold non-standard residues; d marks the D form. Peptide text beside a SMILES is read from it. dPhe(4-I) = N[C@H](Cc1ccc(I)cc1)C(=O)O; 2Nal = N[C@@H](Cc1ccc2ccccc2c1)C(=O)O; d2Nal = N[C@H](Cc1ccc2ccccc2c1)C(=O)O
Assays:
mMC3R = mMC3R (Mus musculus, UniProt P33033); assay: AlphaScreen cAMP agonist assay, HEK293 cells stably expressing mMC3R; assay type: cell-based; conditions: at 100 μM
mMC5R = mMC5R (Mus musculus, UniProt P41149); assay: AlphaScreen cAMP agonist assay, HEK293 cells stably expressing mMC5R; assay type: cell-based; conditions: agonist; >100,000 = no agonist activity up to 100 μM
Sequence of mMC5R (P41149 whole entry): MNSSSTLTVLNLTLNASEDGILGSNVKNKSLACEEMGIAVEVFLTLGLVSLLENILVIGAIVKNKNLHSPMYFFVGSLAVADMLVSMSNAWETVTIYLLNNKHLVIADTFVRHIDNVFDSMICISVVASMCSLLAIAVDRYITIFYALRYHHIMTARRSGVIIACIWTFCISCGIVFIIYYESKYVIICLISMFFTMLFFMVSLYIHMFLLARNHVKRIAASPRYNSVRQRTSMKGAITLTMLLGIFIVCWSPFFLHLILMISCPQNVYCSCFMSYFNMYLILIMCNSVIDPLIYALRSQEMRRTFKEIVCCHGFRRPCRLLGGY

mMC1R = mMC1R (Mus musculus, UniProt Q01727); assay: AlphaScreen cAMP agonist assay, HEK293 cells stably expressing mMC1R; assay type: cell-based; conditions: for mMC1R partial agonist percentage of receptor activation relative to NDP-MSH: partial agonists; for mMC1R agonist activity in words: full agonist = 90% of maximal NDP-MSH signal
Sequence of mMC1R (Q01727 whole entry): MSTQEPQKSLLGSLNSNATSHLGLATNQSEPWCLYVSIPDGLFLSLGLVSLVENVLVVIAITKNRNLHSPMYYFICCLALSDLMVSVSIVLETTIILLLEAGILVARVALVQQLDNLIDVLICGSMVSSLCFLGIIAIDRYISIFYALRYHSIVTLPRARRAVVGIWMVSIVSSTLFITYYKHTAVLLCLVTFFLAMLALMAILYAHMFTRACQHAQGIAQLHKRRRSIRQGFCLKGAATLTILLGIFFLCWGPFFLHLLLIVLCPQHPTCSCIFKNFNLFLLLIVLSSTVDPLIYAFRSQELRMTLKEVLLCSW

[1] = target: mouse melanocortin-1 receptor (mouse) (UniProt Q01727)
Sequence of mouse melanocortin-1 receptor (mouse) (Q01727 whole entry): as above

[2] = target: mouse melanocortin-3 receptor (mouse) (UniProt P33033)
Sequence of mouse melanocortin-3 receptor (mouse) (P33033 whole entry): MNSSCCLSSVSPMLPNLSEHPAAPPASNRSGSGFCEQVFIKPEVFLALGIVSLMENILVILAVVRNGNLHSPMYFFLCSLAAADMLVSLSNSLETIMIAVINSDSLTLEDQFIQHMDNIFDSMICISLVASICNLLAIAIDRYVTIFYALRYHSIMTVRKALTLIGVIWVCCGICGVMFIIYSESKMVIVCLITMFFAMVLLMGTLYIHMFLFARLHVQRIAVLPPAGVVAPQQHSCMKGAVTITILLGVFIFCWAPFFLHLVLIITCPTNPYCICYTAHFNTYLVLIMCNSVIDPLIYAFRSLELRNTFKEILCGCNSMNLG

[3] = target: mouse melanocortin-4 receptor (mouse) (UniProt P56450)
Sequence of mouse melanocortin-4 receptor (mouse) (P56450 whole entry): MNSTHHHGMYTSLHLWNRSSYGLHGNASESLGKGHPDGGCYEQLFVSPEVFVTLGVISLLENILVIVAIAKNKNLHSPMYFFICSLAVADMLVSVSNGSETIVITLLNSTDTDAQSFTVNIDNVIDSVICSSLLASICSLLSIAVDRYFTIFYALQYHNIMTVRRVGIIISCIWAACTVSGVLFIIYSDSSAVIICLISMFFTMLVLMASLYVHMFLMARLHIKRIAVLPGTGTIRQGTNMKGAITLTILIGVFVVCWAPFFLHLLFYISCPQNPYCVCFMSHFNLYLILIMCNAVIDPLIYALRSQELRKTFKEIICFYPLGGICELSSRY

[4] = target: mouse melanocortin-5 receptor (mouse) (UniProt P41149)
Sequence of mouse melanocortin-5 receptor (mouse) (P41149 whole entry): as the sequence (P41149 whole entry) above

[5] = target: mouse melanocortin-3 receptor (mouse) (UniProt P33033); remark: listed apart in the source
[6] = target: mouse melanocortin-4 receptor (mouse) (UniProt P56450); remark: listed apart in the source

Sequence of mMC3R (P33033 whole entry): as the sequence (P33033 whole entry) above

Molecule: CC(=O)N[C@H](Cc1ccc2ccccc2c1)C(=O)N[C@@H](CCCNC(=N)N)C(=O)N[C@@H](Cc1c[nH]c2ccccc12)C(=O)N[C@H](Cc1ccc2ccccc2c1)C(N)=O [Peptide 17, Ac-DNal(2’)-Arg-Trp-DNal(2’)-NH2] (Ac-[d2Nal]RW[d2Nal]-NH2)
- mMC3R percent maximal stimulatory response (compared to NDP-MSH) (mMC3R): 40% @100μM

Molecule: CC(=O)N[C@H](Cc1ccc(I)cc1)C(=O)N[C@H](Cc1ccc2ccccc2c1)C(=O)N[C@@H](Cc1c[nH]c2ccccc12)C(=O)N[C@@H](CCCNC(=N)N)C(N)=O [Peptide 30, Ac-DPhe(pI)-DNal(2’)-Trp-Arg-NH2]
- mMC5R EC50 (mMC5R): inactive

Molecule: CC(=O)N[C@H](Cc1ccc2ccccc2c1)C(=O)N[C@@H](CCCNC(=N)N)C(=O)N[C@@H](Cc1ccc2ccccc2c1)C(=O)N[C@H](CCCCN)C(N)=O [Peptide 22, Ac-DNal(2’)-Arg-Nal(2’)-DLys-NH2] (Ac-[d2Nal]R[2Nal][dK]-NH2)
- mMC1R partial agonist percentage of receptor activation relative to NDP-MSH (mMC1R): 50 % NDP

Molecule: CC(=O)N[C@H](Cc1ccc(I)cc1)C(=O)N[C@@H](CCCNC(=N)N)C(=O)N[C@H](Cc1ccc(I)cc1)C(=O)N[C@H](CCCCN)C(N)=O [Peptide 43, Ac-DPhe(pI)-Arg-DPhe(pI)-DLys-NH2] (Ac-[dPhe(4-I)]R[dPhe(4-I)][dK]-NH2)
- mMC1R agonist activity in words (mMC1R): full agonist activity

Molecule: CC(=O)N[C@H](Cc1ccc(I)cc1)C(=O)N[C@@H](CCCNC(=N)N)C(=O)N[C@@H](Cc1c[nH]c2ccccc12)C(=O)N[C@@H](CCCNC(=N)N)C(N)=O [Peptide 42, Ac-DPhe(pI)-Arg-Trp-Arg-NH2] (Ac-[dPhe(4-I)]RWR-NH2)
- mMC1R partial agonist percentage of receptor activation relative to NDP-MSH (mMC1R): 50 % NDP
- mMC3R percent maximal stimulatory response (compared to NDP-MSH) (mMC3R): 25% @100μM

Molecule: CC(=O)N[C@H](Cc1ccc(I)cc1)C(=O)N[C@H](Cc1ccc2ccccc2c1)C(=O)N[C@@H](Cc1ccc2ccccc2c1)C(=O)N[C@H](CCCCN)C(N)=O [Peptide 34, Ac-DPhe(pI)-DNal(2’)-Nal(2’)-DLys-NH2] (Ac-[dPhe(4-I)][d2Nal][2Nal][dK]-NH2)
- mMC3R percent maximal stimulatory response (compared to NDP-MSH) (mMC3R): 20% @100μM

Molecule: CC(=O)N[C@H](Cc1ccc2ccccc2c1)C(=O)N[C@H](Cc1ccc2ccccc2c1)C(=O)N[C@H](Cc1ccc2ccccc2c1)C(=O)N[C@@H](CCCNC(=N)N)C(N)=O [Peptide 3, Ac-DNal(2’)-DNal(2’)-DNal(2’)-Arg-NH2]
- mMC3R percent maximal stimulatory response (compared to NDP-MSH) (mMC3R): 35% @100μM

Molecule: CC(=O)N[C@H](Cc1ccc(I)cc1)C(=O)N[C@@H](CCCNC(=N)N)C(=O)N[C@@H](Cc1c[nH]c2ccccc12)C(=O)N[C@H](Cc1ccc2ccccc2c1)C(N)=O [Peptide 41, Ac-DPhe(pI)-Arg-Trp-DNal(2’)-NH2] (Ac-[dPhe(4-I)]RW[d2Nal]-NH2)
- mMC3R percent maximal stimulatory response (compared to NDP-MSH) (mMC3R): 25% @100μM

Molecule: CC(=O)N[C@H](Cc1ccc(I)cc1)C(=O)N[C@@H](CCCNC(=N)N)C(=O)N[C@H](Cc1ccc(I)cc1)C(=O)N[C@@H](CCCNC(=N)N)C(N)=O [Peptide 45, Ac-DPhe(pI)-Arg-DPhe(pI)-Arg-NH2] (Ac-[dPhe(4-I)]R[dPhe(4-I)]R-NH2)
- mMC1R agonist activity in words (mMC1R): full agonist activity

Molecule: Ac-[d2Nal]R[2Nal][dK]-NH2
- % receptor activation relative to NDP-MSH (partial agonist), cAMP AlphaScreen [1]: 50%
- apparent EC50 (partial agonist), cAMP AlphaScreen [1]: 3.3 µM
- agonist EC50, cAMP AlphaScreen [2]: > 100 µM
- agonist EC50, cAMP AlphaScreen [3]: > 100 µM
- agonist EC50, cAMP AlphaScreen [4]: > 100 µM
- pA2, antagonism of NDP-MSH at mMC3R, Schild analysis, cAMP AlphaScreen [5]: 6.2
- pA2, antagonism of NDP-MSH at mMC4R, Schild analysis, cAMP AlphaScreen [6]: 7.8

Molecule: Ac-DPhe(pI)-Arg-DNal(2’)-Arg-NH2 (peptide)
- % receptor activation relative to NDP-MSH (partial agonist), cAMP AlphaScreen [1]: 65%
- apparent EC50 (partial agonist), cAMP AlphaScreen [1]: 0.4 µM
- agonist EC50, cAMP AlphaScreen [2]: > 100 µM
- agonist EC50, cAMP AlphaScreen [3]: > 100 µM
- agonist EC50, cAMP AlphaScreen [4]: > 100 µM
- pA2, antagonism of NDP-MSH at mMC3R, Schild analysis, cAMP AlphaScreen [5]: 6.9
- pA2, antagonism of NDP-MSH at mMC4R, Schild analysis, cAMP AlphaScreen [6]: 8.3

B3: Ac-DPhe(pI)-Arg-DPhe(pI)-DLys-NH2 (peptide)
peptide: Ac-[dPhe(4-I)]R[dPhe(4-I)][dK]-NH2
SMILES: CC(=O)N[C@H](Cc1ccc(I)cc1)C(=O)N[C@@H](CCCNC(=N)N)C(=O)N[C@H](Cc1ccc(I)cc1)C(=O)N[C@H](CCCCN)C(N)=O
- agonist EC50, cAMP AlphaScreen [1]: 0.035 µM
- agonist EC50, cAMP AlphaScreen [2]: > 100 µM
- agonist EC50, cAMP AlphaScreen [3]: > 100 µM
- agonist EC50, cAMP AlphaScreen [4]: > 100 µM
- pA2, antagonism of NDP-MSH at mMC3R, Schild analysis, cAMP AlphaScreen [5]: 7.5
- pA2, antagonism of NDP-MSH at mMC4R, Schild analysis, cAMP AlphaScreen [6]: 8.5

B4: Ac-DPhe(pI)-Arg-Trp-DLys-NH2 (peptide)
peptide: Ac-[dPhe(4-I)]RW[dK]-NH2
SMILES: CC(=O)N[C@H](Cc1ccc(I)cc1)C(=O)N[C@@H](CCCNC(=N)N)C(=O)N[C@@H](Cc1c[nH]c2ccccc12)C(=O)N[C@H](CCCCN)C(N)=O
- agonist EC50, cAMP AlphaScreen [1]: > 100 µM
- agonist EC50, cAMP AlphaScreen [2]: > 100 µM
- agonist EC50, cAMP AlphaScreen [3]: > 100 µM
- agonist EC50, cAMP AlphaScreen [4]: > 100 µM
- pA2, antagonism of NDP-MSH at mMC3R, Schild analysis, cAMP AlphaScreen [5]: 6.2
- pA2, antagonism of NDP-MSH at mMC4R, Schild analysis, cAMP AlphaScreen [6]: 7.6

Further lines, results first:

- mMC1R agonist activity in words (mMC1R): full agonist activity
Molecule: CC(=O)N[C@H](Cc1ccc2ccccc2c1)C(=O)N[C@@H](CCCNC(=N)N)C(=O)N[C@H](Cc1ccc(I)cc1)C(=O)N[C@H](CCCCN)C(N)=O [Peptide 19, Ac-DNal(2’)-Arg-DPhe(pI)-DLys-NH2]

- mMC3R percent maximal stimulatory response (compared to NDP-MSH) (mMC3R): 35% @100μM
Molecule: CC(=O)N[C@H](Cc1ccc2ccccc2c1)C(=O)N[C@H](Cc1ccc2ccccc2c1)C(=O)N[C@@H](Cc1c[nH]c2ccccc12)C(=O)N[C@@H](CCCNC(=N)N)C(N)=O [Peptide 6, Ac-DNal(2’)-DNal(2’)-Trp-Arg-NH2] (Ac-[d2Nal][d2Nal]WR-NH2)

- mMC1R agonist activity in words (mMC1R): full agonist activity
Molecule: CC(=O)N[C@H](Cc1ccc2ccccc2c1)C(=O)N[C@@H](CCCNC(=N)N)C(=O)N[C@H](Cc1ccc(I)cc1)C(=O)N[C@@H](CCCNC(=N)N)C(N)=O [Peptide 21, Ac-DNal(2’)-Arg-DPhe(pI)-Arg-NH2] (Ac-[d2Nal]R[dPhe(4-I)]R-NH2)

- % of maximal NDP-MSH response at 100 μM, cAMP AlphaScreen [1]: 30%
- % of maximal NDP-MSH response at 100 μM, cAMP AlphaScreen [2]: 35%
- % of maximal NDP-MSH response at 100 μM, cAMP AlphaScreen [3]: 25%
- agonist EC50, cAMP AlphaScreen [4]: 0.13 µM
- pA2, antagonism of NDP-MSH at mMC3R, Schild analysis, cAMP AlphaScreen [5]: < 5.5
- pA2, antagonism of NDP-MSH at mMC4R, Schild analysis, cAMP AlphaScreen [6]: < 5.5
Molecule: Ac-DNal(2’)-DNal(2’)-DNal(2’)-Arg-NH2 (peptide)

- % receptor activation relative to NDP-MSH (partial agonist), cAMP AlphaScreen [1]: 50%
- apparent EC50 (partial agonist), cAMP AlphaScreen [1]: 7.9 µM
- % of maximal NDP-MSH response at 100 μM, cAMP AlphaScreen [2]: 25%
- agonist EC50, cAMP AlphaScreen [3]: > 100 µM
- agonist EC50, cAMP AlphaScreen [4]: > 100 µM
- pA2, antagonism of NDP-MSH at mMC3R, Schild analysis, cAMP AlphaScreen [5]: 7.4
- pA2, antagonism of NDP-MSH at mMC4R, Schild analysis, cAMP AlphaScreen [6]: 8.7
B1: Ac-DPhe(pI)-Arg-Trp-Arg-NH2 (peptide)
peptide: Ac-[dPhe(4-I)]RWR-NH2
SMILES: CC(=O)N[C@H](Cc1ccc(I)cc1)C(=O)N[C@@H](CCCNC(=N)N)C(=O)N[C@@H](Cc1c[nH]c2ccccc12)C(=O)N[C@@H](CCCNC(=N)N)C(N)=O

- agonist EC50, cAMP AlphaScreen [1]: 0.007 µM
- agonist EC50, cAMP AlphaScreen [2]: > 100 µM
- agonist EC50, cAMP AlphaScreen [3]: > 100 µM
- agonist EC50, cAMP AlphaScreen [4]: > 100 µM
- pA2, antagonism of NDP-MSH at mMC3R, Schild analysis, cAMP AlphaScreen [5]: 7.4
- pA2, antagonism of NDP-MSH at mMC4R, Schild analysis, cAMP AlphaScreen [6]: 8.5
B2: Ac-DPhe(pI)-Arg-DPhe(pI)-Arg-NH2 (peptide)
peptide: Ac-[dPhe(4-I)]R[dPhe(4-I)]R-NH2
SMILES: CC(=O)N[C@H](Cc1ccc(I)cc1)C(=O)N[C@@H](CCCNC(=N)N)C(=O)N[C@H](Cc1ccc(I)cc1)C(=O)N[C@@H](CCCNC(=N)N)C(N)=O
